Experiment: soluble on expression in E. coli; label from the status in PepcDB or PDB records

Sequence	soluble on expression in E. coli
MKEFWVWVEPFDRKIVSVALEAGANAVVIPEKGRVEEVKKVGRITVIAPDGDLKLGEDVVYVLIKGKEDEERAAKYPPNVKVIVETTDWTVIPLENLIAQREELYAVVKNAQEAEVALQTLEKGVKGVVLKSRDINEIKKVGQIVSEHEEKLELVTIKITKILPLGLGDRVCVDTISLLHRGEGMLVGNSSGGMFLVHAETEENPYVAARPFRVNAGAVHMYIRVPNNRTKYLCELKAGDKVMVYDYKGRGRVTYVGRAKVERRPMLLIEGRYENKKLSCILQNAETIRLTKPDGTPISVSELKEGDEVLGYVEEAGRHFGMKVEETIIEK	not soluble
MKEGDTMSWQTHTVFNQPAPLNNSNLFLSDGALCEAVSREGAGWDSDLLASIGQQLGTAESLELGRLANAHPPELLRYDPQGQRLDDVRFHPAWHLLMQGLCANRVHNLAWEEEARAGSFVARAARFVLHAQVEAGTLCPVTMTFAATPLLLQMLPATFHDWLAPLRSDRYDSHLLPGGQKRGLLIGMGMTEKQGGSDVLSNTTHAERLADDSYRLVGHKWFFSVPQSDAHLVLAQAKGGLSCFFVPRFLPDGQRNSVRLERLKDKLGNRSNASAEVEFQDAIGWRLGEEGEGIRHILKMGGMTRLDCALGSHGLMRRAFSVAIYHAHQRQAFGKPLIDQPLMRQTLSRMALCLEGQTALLFRLARAWEQRREAKEALWARLFTPAAKFAICKLGIPFVAEAMEVLGGMGYCEESELPRLYREMPVNSIWEGSGNIMCLDVLRVLTKQHGVYDVLSEAFAEVKGQDRHYDRAVRQLQQRLRKPDEAMGREITQQLFLLGCGAEMLRHASPPLAQAWCQMMLDTRGEMPLPAQVQNDLLLRATGGLR	not soluble
MKEGKWFASANNQNKFLDPRERGNILNYLKVCLLLARAVRRMHAAGLCHSDLSYKNVLIDPEQGHACIIDVDGLVVPGKFPPDVVGTPDFIAPEVVKTSHLLKEDPQRILPNITTDRHALSVLIYMYLFYRHPLRGGKIHDMDDEVRDESLAMGERALFIEHPTDRSNAVKLNQVKPSSLPWADPQKVPYTIMGPYLTQLFEKAFIDGLHDPSKRPTADEWETALVKTVDLIQPCQNTACEQKWYVFSGKTKPVCPYCLEHHHHHH	not soluble
MKEIDWANLSFGYMKTDYNVRINFRNGAWGELEVSSDEHLNLHMAATCLHYGQEAFEGLKAFRGKDGKVRIFRLEENAARLQSTCQGILMAELPTERFKEAILKVVKLNERFIPPYETGASLYIRPLLIGTSAQVGVHPAEEYMFVVFVTPVGPYFKGGFSTNPYVIIREFDRAAPHGTGIYKVGGNYAASLRANKKAHDLGYSCEFYLDAKEKKYIDECGAANFFGIKDNTYITPKSSSILPSITNKSLMQLAEDMGIKVERRPIPEEELETFEEAGACGTAAVISPIQRIDDLENGKSYVISKDGKPGPICTKLYNKLRGIQYGDEPDTHGWVTIVE	not soluble
MKEKKLNLKKHLNTVVTLNSDYLNLLDLMQITNANFPIGTFSHSFGVETYIRKDIVFDGESLIKALLLYMNEQLLHGDLLAIYQIFKLLPKQKINAIWEIDQMINFQGLARETREGQRRIGQQMVKIYNELFNCELLVEYAERIKNKKSYGNPAVAFALLAMHLKIDLKTALYTHLYSTVAALTQNCVRAIPLGQVKGQKIIYQLKHVYFDDIVNKVFTLDFKTDFCKNIPGLEIAQMEHEDTPVRLFMSLEHHHHHH	not soluble
MKELVEIAVPENLVGAILGKGGKTLVEYQELTGARIQISKKGEFLPGTRNRRVTITGSPAATQAAQYLISQRVTYEQGVRASNPQKV	soluble
MKEQKISPISVLDQSPMFVSGVMQRMYRNRAQAELCRQNQMTLEMASALAALEEFQPMSQQALADAVLTERSVAKRMVDNLEKRGFVCVSKSEANQRLKMLSLTKEGEATIKKVHQIMRNLQREFFSCLSEDESAEFFRLVRKMTLANNS	not soluble
MKEVPMILEICVDDVAGLEAAVRGGADRIELCAALSGGGVTPSAGFMQRAATYGLPVSVMIRPRAGDFVFTHDEADVMKRDIDAARAAGLSGVVLGASRGDGSLDMALLEDLRRHADGMDATLHRAFDVAPDMEEALEAAISLGFPRILTSGGARSALEGVKTLARLSELAKGRIVIMPGAGVRPQSVQALLDSFPITEIHASCSAVPLYDPESRVAKLGFTGAGRKATDEAAVRELKTILSAHHKGGATLLEHHHHHH	soluble
MKFAFIAKHRSIWPVAWLCEALGVSRSGFHAWFNRSPSEHARHDEVLLERIKQSFQSSDRTYGARRVWHDVLEEGLSCGLHRIERLMRLNALRARPRRRGFPKDAGDRPVVMPNVLDRQFVADRPNQKWVADFTYIWTAEGWLYVAAVIDLFSRRVVGWSMNANMTAQLVTDALIMAIWRRGKPDALLHHSDQGSQYTSEQFQRLMGDHGITCSMSRSGNVWDNAAMESFFSSLKTERTARKVYRTRNDARADVFDYIERFYNPKRRHSTLGYLSPDDFETKVGLA	soluble
MKFTPPPASLRNPLIIPEKIMMGPGPSNCSKRVLTAMTNTVLSNFHAELFRTMDEVKDGLRYIFQTENRATMCVSGSAHAGMEAMLSNLLEEGDRVLIAVNGIWAERAVEMSERYGADVRTIEGPPDRPFSLETLARAIELHQPKCLFLTHGDSSSGLLQPLEGVGQICHQHDCLLIVDAVASLCGVPFYMDKWEIDAVYTGAQKVLGAPPGITPISISPKALDVIRNRRTKSKVFYWDLLLLGNYWGCYDEPKRYHHTVASNLIFALREALAQIAEEGLENQIKRRIECAQILYEGLGKMGLDIFVKDPRHRLPTVTGIMIPKGVDWWKVSQYAMNNFSLEVQGGLGPTFGKAWRVGIMGECSTVQKIQFYLYGFKESLKATHPDYIFEESNGFH	soluble
MKGFQFKVIQEKLQGRQFINSDKIKPDHPQTIIKKTLLKEYQSKNFSCQEERDLFLEFTEKIVQNFHNINFNYLLKKFCKLPENYQSLKSQVKQIVQSENKANQQSCENLFNSLYDTEISYKQITNFLRQIIQNCVPNQLLGKKNFKVFLEKLYEFVQMKRFENQKVLDYICFMDVFDVEWFVDLKNQKFTQKRKYISDKRKILGDLIVFIINKIVIPVLRYNFYITEKHKEGSQIFYYRKPIWKLVSKLTIVKLEEENLEKVEEKL	soluble
MKGLFLIFHGFEAFNGISKKIRYQVKALKECGLEMHTCWLDDTDNHKRRMVDESIIADYGFGIKGKILKRIEFDSIVHYVQKENIDFIYVRYVHNASPFSIRLMKLLKKTGARIVMEIPTYPYDQEYKGLPFVYQRILFIDKCFRQHLARYVDKIVTFSDYDIIWNRPTIRISNGIDFSEIPLRGPKNDTAHSLQLIAVATMHPWHGFDRVIAGMANYYRTHTDTHDYKVYLNIVGFGVPELVDSYKKDVAKHQLEKYIIFHSALYGKELDAVFEQSDMGIGSLARHRSGIDKIKTLKNREYAARGIPFVYSETDDDFEHQPYILKAAPDDSPLDIEKVIRFYQSLKTTPLQIRMSIEQSLSWKAQMQIVINETFE	not soluble
MKGMFTPGNGPVQISAEAIKKRVEELGGEIARDYQGKTPHLICVLNGAFIFMADLVRAIPLPLTMDFIAISSYGNAFKSSGEVELLKDLRLPIHGRDVIVVEDIVDTGLTLSYLLDYLEARKPASVRVAALLSKPSRRQVEVPIHYLGFEIEDAYVYGYGLDRAQFDRNLPFITSIRPEEE	soluble
MKHGILVAYKPKGPTSHDVVDEVRKKLKTRKVGHGGTLDPFACGVLIIGVNQGTRILEFYKDLKKVFWVKMRLGLITETFDITGEVVEERECNVTEEEIREAIFSFVGEYDQVPPAYSAKKYKGERLYKLAREGKIINLPPKRVKIFKIWDVNIEGRDVSFRVEVSPGTYIRSLCMDIGYKLGCGATAVELVRESVGPHTIEESLNVFEAAPEEIENRIIPLEKCLEWLPRVVVHQESTKMILNGSQIHLEMLKEWDGFKKGEVVRVFNEEGRLLALAEAERNSSFLETLRKHERQERVLTLRKVFQTR	soluble
MKHHHHHHPMGHMQTLIFLDLEATGLPSSRPEVTELCLLAVHRRALENTSISQGHPPPVPRPPRVVDKLSLCIAPGKACSPGASEITGLSKAELEVQGRQRFDDNLAILLRAFLQRQPQPCCLVAHNGDRYDFPLLQTELARLSTPSPLDGTFCVDSIAALKALEQASSPSGNGSRKSYSLGSIYTRLYWQAPTDSHTAEGDVLTLLSICQWKPQALLQWVDEHARPFSTVKPMYGTPATTGTTNLR	soluble
MKHMPRKMYSCAFETTTKVEDCRVWAYGYMNIEDHSEYKIGNSLDEFMAWVLKVQADLYFHNLKFAGAFIINWLERNGFKWSADGLPNTYNTIISRMGQWYMIDICLGYKGKRKIHTVIYDSLKKLPFPVKKIAKDFKLTVLKGDIDYHKERPVGYKITPEEYAYIKNDIQIIAEALLIQFKQGLDRMTAGSDSLKGFKDIITTKKFKKVFPTLSLGLDKEVRYAYRGGFTWLNDRFKEKEIGEGMVFDVNSLYPAQMYSRLLPYGEPIVFEGKYVWDEDYPLHIQHIRCEFELKEGYIPTIQIKRSRFYKGNEYLKSSGGEIADLWLSNVDLELMKEHYDLYNVEYISGLKFKATTGLFKDFIDKWTYIKTTSEGAIKQLAKLMLNSLYGKFASNPDVTGKVPYLKENGALGFRLGEEETKDPVYTPMGVFITAWARYTTITAAQACYDRIIYCDTDSIHLTGTEIPDVIKDIVDPKKLGYWAHESTFKRAKYLRQKTYIQDIYMKEVDGKLVEGSPDDYTDIKFSVKCAGMTDKIKKEVTFENFKVGFSRKMKPKPVQVPGGVVLVDDTFTIK	soluble
MKIAGFDIGGANTDMAIIDFGSDGDMKEVRVDFRYLPMWLRKDELAETLLEMVGDDLHELEGVGVCMTAELVDAYPSKAAGVADIIDRVEGAFDVPVAYVSLSGMVDASEALADPMNIAAANWVATSQIASAMSSDCIMVDVGSTTTDIIPVKDGFEAARGRNDLERLSTGELVYTGTLRTNVATIVDRVPLQDKWFRVSSELFAVTADVHRVLGNIGESDYTCSTPDGAGKSVEECMLRIARVLCADLELLSPGDVLDVAEYIYHQQILKIAEGIAEVSEREGLEEVVTTGLGMKILAQRAAEVLELECRTMDEFLTEEECVVAPAVGTALLMEDYLQAQGLLEHHHHHH	not soluble
MKIAIASGKGGTGKTTVAVNLALALEEVQLFDCDVEEPNCNLFLGFEMEPVEEVVFLVPEINPDKCTLCRGCSDFCRYNALAAIPNRILSFPSLCHGCGGCSFVCPAGAIEEKPETIGIIQKALSDSPLTFFCGTLKIGKATATPVIKSLQNHIDESRPAIIDSPPGTACPVLAVMGFADYCVLVTESTPFGFHDFCLALEAARALNVPVGVVLNRDGLGDSRVEDFCRAEGIPILLRIPNDRTIARLYSEGIPFVKEMPEWKKQFKDMFETIKTGLYESKGVQLEHHHHHH	not soluble
MKIAIIGAGIGGLTAGALLLEKGHDVSIFERQSNISEVGAGIGIGDNVIKKLGKHDLAKGIKNAGQNLSAMNVLDDKGNILSAVKLKEATLNVTLARQTLIELIQSYVNPQCIYTDHDVIKVENVEQHTMVHFSNHASQSFDLCIGSDGLHSVVRQAIHQNAKILYQGYTCFRGLVDDADLHNIDIASEYWGKRGRVGIVPLINNQAYWFITINASEKDPKYQTFEKPHLQAYFNNYPEPVRQILDKQSETGIQKHDLYDMKPLKSFVNQRILLLGDAAHATTPNMGQGAGQAMEDAIVLVNCLAEYDIEKALKRYDKLRVKHTAKVIKRSRKIGKIAQKDNKLVISLRNGVMKRTPNRLLSGQTKFLYKAKHKLEHHHHHH	not soluble
